The values that follow come from patent US20190077876A1 (AbbVie / Abbott, published 2019).

The target of assay [1] is T1, human CLDN6 protein (human, UniProt P56747 1-220).
T1 sequence (looked up): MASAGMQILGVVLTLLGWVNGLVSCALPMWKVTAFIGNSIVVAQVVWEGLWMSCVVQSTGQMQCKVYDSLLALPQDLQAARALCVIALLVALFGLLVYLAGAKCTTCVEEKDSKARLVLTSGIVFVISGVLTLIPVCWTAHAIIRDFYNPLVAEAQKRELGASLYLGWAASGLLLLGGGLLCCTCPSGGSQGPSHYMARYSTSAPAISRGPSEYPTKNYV
As to the kind of experiment: cell-based or functional assay.

Assay [2] addresses T2, human CLDN9 protein (human, UniProt O95484 1-217).
T2 sequence (looked up): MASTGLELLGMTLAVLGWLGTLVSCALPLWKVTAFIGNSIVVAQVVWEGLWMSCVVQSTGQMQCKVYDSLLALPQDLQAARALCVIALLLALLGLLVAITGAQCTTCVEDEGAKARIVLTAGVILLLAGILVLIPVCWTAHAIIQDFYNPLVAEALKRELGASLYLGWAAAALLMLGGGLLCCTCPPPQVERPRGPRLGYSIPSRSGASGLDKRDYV
Briefly: cell-based or functional assay.

For assay [3], the target named is T2, human CLDN9 protein. Briefly: flow cytometry on cells overexpressing human CLDN9; 10 µg/mL purified antibody, Alexa 647 anti-mouse secondary; single point. In general terms: A flow cytometer gives signals particle by particle.
In assay [4] the target is T3, human CLDN4 protein (human, UniProt O14493 1-209).
T3 construct: whole, on cells; also called hCLDN4; claudin 4
T3 sequence (looked up): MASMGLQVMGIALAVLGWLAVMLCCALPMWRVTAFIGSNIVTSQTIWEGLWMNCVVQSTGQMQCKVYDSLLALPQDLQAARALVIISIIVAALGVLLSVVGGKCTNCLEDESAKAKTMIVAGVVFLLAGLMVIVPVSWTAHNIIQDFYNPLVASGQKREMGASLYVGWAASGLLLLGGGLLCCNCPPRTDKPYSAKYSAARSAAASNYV
Briefly: flow cytometry on cells overexpressing human CLDN4; Alexa 647 anti-mouse secondary; single point.

For assay [5], the target named is T3, human CLDN4 protein. Briefly: flow cytometry on cells overexpressing human CLDN4; 10 µg/mL purified antibody, Alexa 647 anti-mouse secondary; single point.
In assay [6] the target is T1, human CLDN6 protein. As to the kind of experiment: flow cytometry on cells overexpressing human CLDN6; 10 µg/mL purified antibody, Alexa 647 anti-mouse secondary; single point.
Assay [7] addresses T1, human CLDN6 protein. As to the kind of experiment: cell-based or functional assay. The source holds these as a separate data set.
Assay [8] has as its target T2, human CLDN9 protein. As to the kind of experiment: cell-based or functional assay. This is another data set of the same source.
Assay [9] deals with hCLDN proteins on the surface of PDX tumor cells. As to the kind of experiment: flow cytometry on OV54MET (OV-S) PDX tumor cells, NTG subpopulation; change in geometric MFI against the IgG1 isotype control.
Assay [10] has the same target. Briefly: flow cytometry on OV44 (OV-S) PDX tumor cells, CSC subpopulation (EPCAM+ CD46hi CD324+); change in geometric MFI against the IgG1 isotype control.
Assay [11] shares this target. Briefly: flow cytometry on LU22 (LU-Sq) PDX tumor cells, NTG subpopulation; change in geometric MFI against the IgG1 isotype control.
Assay [12] shares this target. Briefly: flow cytometry on LU135 (LU-Ad) PDX tumor cells, CSC subpopulation (EPCAM+ CD46hi CD324+); change in geometric MFI against the IgG1 isotype control.
Assay [13] has the same target. Briefly: flow cytometry on PA49 (PDAC) PDX tumor cells, CSC subpopulation (EPCAM+ CD46hi CD324+); change in geometric MFI against the IgG1 isotype control.
For assay [14] the target is unchanged. As to the kind of experiment: flow cytometry on OV91MET (OV-PS) PDX tumor cells, CSC subpopulation (EPCAM+ CD46hi CD324+); change in geometric MFI against the IgG1 isotype control.
Assay [15] shares this target. Briefly: flow cytometry on LU135 (LU-Ad) PDX tumor cells, NTG subpopulation; change in geometric MFI against the IgG1 isotype control.
The target is the same in assay [16]. As to the kind of experiment: flow cytometry on PA24 (PDAC) PDX tumor cells, CSC subpopulation (EPCAM+ CD46hi CD324+); change in geometric MFI against the IgG1 isotype control.
Assay [17] shares this target. Briefly: flow cytometry on LU22 (LU-Sq) PDX tumor cells, CSC subpopulation (EPCAM+ CD46hi CD324+); change in geometric MFI against the IgG1 isotype control.
Assay [18] shares this target. As to the kind of experiment: flow cytometry on OV44 (OV-S) PDX tumor cells, NTG subpopulation; change in geometric MFI against the IgG1 isotype control.
The target is the same in assay [19]. Briefly: flow cytometry on OV54MET (OV-S) PDX tumor cells, CSC subpopulation (EPCAM+ CD46hi CD324+); change in geometric MFI against the IgG1 isotype control.
Assay [20] shares this target. As to the kind of experiment: flow cytometry on OV91MET (OV-PS) PDX tumor cells, NTG subpopulation; change in geometric MFI against the IgG1 isotype control.
Assay [21] shares this target. Briefly: flow cytometry on PA20 (PDAC) PDX tumor cells, CSC subpopulation (EPCAM+ CD46hi CD324+); change in geometric MFI against the IgG1 isotype control.
Assay [22] shares this target. As to the kind of experiment: flow cytometry on PA49 (PDAC) PDX tumor cells, NTG subpopulation; change in geometric MFI against the IgG1 isotype control.
The target is the same in assay [23]. Briefly: flow cytometry on PA24 (PDAC) PDX tumor cells, NTG subpopulation; change in geometric MFI against the IgG1 isotype control.
Assay [24] has the same target. Briefly: flow cytometry on PA20 (PDAC) PDX tumor cells, NTG subpopulation; change in geometric MFI against the IgG1 isotype control.
The target of assay [25] is T1, human CLDN6 protein. As to the kind of experiment: flow cytometry, antibody titration on HEK-293T cells overexpressing CLDN6, four parameter fit of fraction maximal binding; HEK-293T cells overexpressing CLDN6.
From the text: (§1) Following additional washing with PBS, cells were fixed with paraformaldehyde (PFA) and read on a BD FACS Canto II flow cytometer in accordance with the manufacturer's instructions. MFI values were normalized using fluorescent microspheres (Bangs Laboratories) according to manufacturer's instructions.
Assay [26] has as its target T2, human CLDN9 protein. As to the kind of experiment: flow cytometry, antibody titration on HEK-293T cells overexpressing CLDN9, four parameter fit of fraction maximal binding; HEK-293T cells overexpressing CLDN9.
From the text: as §1

B1: SC27.103 mouse monoclonal anti-CLDN antibody (antibody, V domains shown)
VH: EVHLQQSGPELVKPGGSMKISCKASGYSFTGYTMNWVKQSHGKNLEWIGLFNPYNGGTSYNQKFKGKATLTVDKSSSTAYMELLSLTSEDSAVYYCARCYRYDGLDYWGQGTTLTVSS
VL: QIVLTQSPAIMSASLGERVTMTCTASSSVSSSYLHWYQQKPGSSPTLWIYRTSDLASGVPARFSGSGSGTSYSLTISSMEAEDAATYYCHQYHRSPWTFGGGTRLEIK
As for B1, the “apparent IC50 of saporin-mediated cell killing” value in the assay with human CLDN6 protein [1] was 58 nM; in the assay with human CLDN9 protein [2] it was 466 nM. Further, the MFI is 12100 in the assay with human CLDN9 protein [3], 75 with human CLDN4 protein [5] and 99600 with human CLDN6 protein [6]. The binding result with human CLDN4 protein [4] is recorded as “no binding (tested: 10 µg/mL)”. In the assay with human CLDN6 protein [7], the “apparent IC50 of killing of HEK-293T cells overexpressing hCLDN6; antibody titrated 0.15 to 1000 nM with anti-mouse IgG Fab-saporin, CellTiter-Glo” value came out at 57.7 nM. For the same molecule, the “apparent IC50 of killing of HEK-293T cells overexpressing hCLDN9; antibody titrated 0.15 to 1000 nM with anti-mouse IgG Fab-saporin, CellTiter-Glo” value with human CLDN9 protein [8] stood at 466 nM.

B2: SC27.1 mouse monoclonal anti-CLDN antibody (antibody, V domains shown)
VH: EVQLQESRPELVKPGASVKISCKTSGYTFTEYTLHWVKQSHGKSLEWIGGINPNNGDTIYNQKFKGKATLTVDKSSSTAYMELRSLTSEYSAVYYCARRAITVYAMDYWGQGTSVTVSS
VL: DIQMTQSSSSFSVSLGDRVTITCKASEDIYNRLAWYQQKPGNAPRLLISGATSLETGTPSRFSGSGSGKDYTLSITSLRTEDAATYYCQQYWSTPLTFGTGTKLELK
For the molecule B2, the ΔMFI was found to be 21 in assay [9]; 643 in assay [10]; 31 in assay [11]; 88 in assay [12]; 194 in assay [13]; 118 in [14]. Moreover, the ΔMFI in assay [15] turned out to be 17; in assay [16], 1580; in assay [17] it was 733; in [18], 53; in assay [19] it was 763; in assay [20], 0. In addition, the ΔMFI in assay [21] turned out to be 250; in assay [22] it was 0; in assay [23] it was 223; in assay [24] it was 60.

B3: hSC27.22 humanized anti-CLDN antibody (antibody, human IgG1, kappa, V domains shown)
VH: QVQLVQSGAEVKKPGASVKVSCKASGYTFTSYWMNWVRQAPGQRLEWMGMIHPSDSEIRLNQKFKDRVTITRDTSASTAYMELSSLRSEDTAVYYCARIDSYYGYLFYFDYWGQGTTVTVSS
VL: DIVMTQSPDSLAVSLGERATINCRASQTVSTSSYSYMHWYQQKPGQPPKLLIYFASNVESGVPDRFSGSGSGTDFTLTISSLQAEDVAVYYCQHSWEIPWTFGQGTKLEIKR
Regarding B3, the values for the EC50 with human CLDN6 protein [25] and in the assay with human CLDN9 protein [26] were 3.45 µg/mL and 4.66 µg/mL, respectively.

As a reminder, the EC50 is the concentration that produces a half-maximal response. A high value points to a less potent agent.
